What was measured:
[1] = molecular target: the molecule itself; experiment: SEC + other: dynamic light scattering; co-expressed and co-purified complex on a size exclusion column (Superdex 75 26/60 for MqsR:MqsA-F); oligomeric state confirmed by dynamic light scattering
[2] = molecular target: T1, MqsR (his-tagged), co-expressed with full-length MqsA (E. coli, UniProt Q46865 1-98); experiment: as above; conditions: both partners purified
T1 construct: MqsR (YgiU, b3022) toxin of Escherichia coli, 98 residues; also called YgiU; B3022; not shown: His6, N-terminal, kept
T1 sequence (looked up): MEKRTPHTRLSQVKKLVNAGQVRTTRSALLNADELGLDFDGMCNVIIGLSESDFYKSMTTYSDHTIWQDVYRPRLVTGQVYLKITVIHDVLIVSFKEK

[3] = molecular target: the molecule itself; experiment: crystal structure; MqsA-F, 2.15 Å, molecular replacement; sitting drop at 4°C, 75 mM Bis-Tris pH 5.5, 150 mM MgCl2, 19% PEG3350; two molecules in the asymmetric unit
[4] = molecular target: T2, MqsR, his6-tag cleaved, co-expressed with MqsA-N (E. coli, UniProt Q46865 1-98); experiment: SEC + other: dynamic light scattering; co-expressed and co-purified complex on a size exclusion column (Superdex 75 26/60 for MqsR:MqsA-F); oligomeric state confirmed by dynamic light scattering; conditions: both partners purified
T2 construct: MqsR (YgiU, b3022) toxin of Escherichia coli, 98 residues; 1-97 seen in the first complex of the crystal; also called YgiU; B3022; not shown: His6, N-terminal, cleaved
T2 sequence (looked up): T1 sequence (looked up)

B1: Full-length MqsA (MqsA-F), untagged, co-expressed with MqsR (natural protein, E. coli, UniProt Q46864 1-131, looked up)
chain: MKCPVCHQGEMVSGIKDIPYTFRGRKTVLKGIHGLYCVHCEESIMNKEESDAFMAQVKAFRASVNAETVAPEFIVKVRKKLSLTQKEASEIFGGGVNAFSRYEKGNAQPHPSTIKLLRVLDKHPELLNEIR
notes: MqsA (YgiT, b3021) antitoxin of Escherichia coli, residues 1-131; Two copies stand in the MqsR:MqsA2:MqsR complex; also called YgiT; B3021; source: co-expressed with his-tagged MqsR, co-purified, SEC
[1]
  binding result: binds
[2]
  stoichiometry N: 1 MqsA-F per MqsR (2:2 complex)

B2: Full-length MqsA (MqsA-F), his6-tag cleaved (natural protein, E. coli, UniProt Q46864 1-131, looked up)
chain: B1 chain
modifications: Gln108 methylated at N5
notes: MqsA (YgiT, b3021) antitoxin of Escherichia coli, residues 1-131; Modified pET28a with a TEV site; also called YgiT; B3021; source: E. coli One Shot BL21 (DE3), purified (his6-tag, TEV cleavage, subtraction his6-tag, SEC); not shown: His6, N-terminal, cleaved
[3]
  binding result: binds

B3: MqsA N-terminal domain (MqsA-N), untagged, co-expressed with MqsR (domain or fragment, E. coli, UniProt Q46864 1-76, looked up)
chain: MKCPVCHQGEMVSGIKDIPYTFRGRKTVLKGIHGLYCVHCEESIMNKEESDAFMAQVKAFRASVNAETVAPEFIVK
notes: MqsA (YgiT, b3021) antitoxin of Escherichia coli, N-terminal domain, residues 1-76; Untagged pCA21a vector; source: E. coli BL21 (DE3), co-expressed with MqsR, purified (his6-tag of MqsR, thrombin cleavage, subtraction his6-tag, SEC)
[4]
  stoichiometry N: 1 MqsA-N per MqsR (1:1 heterodimer)
